These results are taken from a protein production outcome set (Wang et al. 2014).

The series is described as follows: label from the status in PepcDB records.
“MTNVLWLQGGACSGNTMSFLNAEEPTVCDLIADFGIKVLWHPSLGLELGDNVQTLLWDCILGKIPLDILVFEGTVVNAPNGTGEWNRFADRPMKDWLNDLAQAASFVVAVGDCATWGGIPAMEPNPSESQGLQFLKRKEGGFLGKDFRAKSGLPVINIPGCPSHPDWITQILVAIATGRIGDIALDELNRPQTFFNTFTQTGCTRNVHFAYKATTAEFGQRKGCLFYDLGCRGPMTHSSCNRILWNRVSSKTRAGMPCLGCTEPEFPFFDLKPGTVFKTQTIMGVPKELPPGVSNKNYAVLTMVAKDTAPKWAEEDFFTV”: the protein production result was “failed”. Regarding “MTNWKPLVSVITPSYNARDYIEDTVHSVLDQSHPHWEMIIVDDCSTDGTRDILQQYEKIDERIHVVYLEENSGAAVARNKALERAQGRYVAFLDSDDKWKKDKLEKQLEFMMERSCAFSFTGYSLMAQDGTPLDKFIHAPESLTYDDALKNTIIGCLTVMIDREQTGQIQMPNIRTRQDLATWLSLLKKGFTAYGMNECLAEYRLVNNSISSNKWKAAKKTWFVYREIERLHFMKATWCFVQYAKNAVKKRLLEHHHHHH”, the protein production result is recorded as “not failed”.

Turning to “MTPFPHASLFTPHSSRITPSLHLPVRLGNATFDTRHRTALTMSADRLEQLKTFHEEDPEDPFTRYALAQEHLKHDNASRALALFEELVETDPDYVGTYYHLGKLYERLDRTDDAIDTYAQGIEVAREEGTQKDLSELQDAKLKAEGVGFD”, the protein production result is given as “failed”. The value for “MTPFTQSQRIKALFWLSLFHLLVIISSNYLVQLPITIFGFHTTWGAFSFPFIFLATDLTVRIFGAPLARRIIFAVMIPALLVSYVVSSLFYMGAWQGFAALANFNLFVARIAAASFMAYALGQILDVHVFNRLRQNRRWWLAPTASTLFGNISDTLAFFFIAFWRSPDAFMAGHWMEIALVDYCFKVLISIIFFLPMYGVLLNMLLKKLADKSEISPLPAS” was “not failed”. The value for “MTPHPRLSIGLPVYNGEEYLAESLDALLGQTYENFELVISDNASTDGTRDICRRYAAQDSRIRYIRLPRNIGAAPNHNYVFTECRGELFKWASHDDLYARDLLRSCVAALDERPEVVLAHAGQAVIDGDGKVKVPYEYGLATDSPRAPERFRSLLFEPGGDDFYGVMRSAMLRRVKPHDSYHHADRTFVAEITLHGPFHQVPELLYFRRDHPTRAERANPSKRSRCVNLDPRRAGPLHPTPRLLAEYVWGFASAIGRAPLSSADRRACHRHLAAWLTSRVRPGVGERVEDRAPVDPDRLTVSVDDLVAGREGRQALEHHHHHH” was “failed”; that for “MTPIAQRDGQAIQLVGFDGDDTLWKSEDYYRTAEADFEAILSGYLDLGDSRMQQHLLAVERRNLKIFGYGAKGMTLSMIETAIELTEARIEARDIQRIVEIGRATLQHPVEVIAGVREAVAAIAADYAVVLITKGDLFHQEQKIEQSGLSDLFPRIEVVSEKDPQTYARVLSEFDLPAERFVMIGNSLRSDVEPVLAIGGWGIYTPYAVTWAHEQDHGVAADEPRLREVPDPSGWPAAVRALDAQAGRQQ” was “not failed”; that for “MTPIQDHPLRFALANELHARPFPISRAPCTVAYLAVKQPDAAVGRDRKADRAHLIDLLDRHGAPHPQPGATHYAGQIGRHWLKWESHTEFVTYTAFATGVSDRPFNPADFEVFPPDWLAAAPGQRVTSALLRVEEQLPEADIVAALADWFVPESLAVAHVLDRAAVAAGDFRIDPAGHMRFAVFVAPDTGERRIGRIIQRLCEIETYKAMSMLGFARVKALGPKLGELDSGLTGLMVKMTDGGHPAEDLLPQLLSTSAELETMAARSEFRLGATGAYEAIVNQRIASLREERFGGRQTFADFMLRRYEPAMRTVKSTERRLKRLSDRAIRAGDLLRTRVDVERSAQNQALLESMDRRADLALRLQHTVEGLSVVAVSYYAVSLVSAFLLPLSEWYGVDKKALIALVTLPVVGLVWLGIRRIRKKLH” was “failed”. Next, “MTPPIAADYTAQAVSTDTIGYLHSTESGAGVDGPGMRFVFFVSGCQFRCLYCHNPDTWKLHNGRQVSVEQALSEVAPYARFLKFAGGVTISGGEPLMQHEFVGELFHEIKQRFGLHTALDTQGFLHERVSDAWFDDVDLVMLDIKHSDPEKYQALTGQPLQPTLDFALRLKRLRKKMWIRYVLVPGLTDGDADIEKLADFAASLGDVVERVEVLPFHQLGKDKWAQLGMEYQLNDTPIPTAEQAAHARALFASRGLKVTLEHHHHHH”: “not failed”. “MTPQFRALLVHLFTATGAVFAMLAMLAAVDAKWDLMFLWLVVAFFVDGLDGPMARRYHVKTYAPEFDGVLLDLIIDYLTYVFIPAFALFKSGLMDGWTGWLAIIIITFASAMYFADTRMKTKDNSFSGFPGCWNMVVLVIFALEPNFWVSLVLVTVLAVSMFLPLKFVHPVRTERWRAITLPMALAWTFFAGWAAWVGFHPESWAHWGLVVTSLYLIFAGIAQMVIPEKDTASPF”: the protein production entry is “failed”. The value for “MTPSKTTLVERCYKYIMSNEKNWSPYTVINRKSWVKNYIEPFFKDTKLIDINPVLIQTFINTTFNNCTFSSSKIRYRFISSVLKEAYRLREINENPCDFVKLPLEHHHHHH” was “failed”; that for “MTPVCAWIGSPGAKAQLSFAGRGHSTAKRRRGPAGEPAVPGEALPGARGSLKAHPKPWAAAMWARGCLHHIRVWFSWSQQGSGNGRSGWERLAREARGLWQLWCLPGTPNSSPLQTDM” was “failed”. The value for “MTPYDIKDPDVRRRRFRPIPVRMLVPNVITLLAICAGLTSIRLSIEGRMSLAVYAIVFAAALDGIDGRIARMIKGQSKFGAELDSLADFVNFGVAPGLMLYFWQLHELGNAGWIAAMVFAISGGLRLARFNATMDDPNKPAFAANFFTGVPAPAGAITVLLPIYVAFLDLGRAPAAVTAAYTLLIAFLMVSRLPVFSGKTKRMRVPPELVLPAFVAVIVFIAILIAYPWHVLSIGTVLYLLALPLGYKSYRDQARAMDAATPAGGEISSPPSAPTLANLSEPPHDDDRPGRLH” was “failed”; that for “MTQAFSRVRFIMTQPSHPGNVGSAARAIKTMGFGELVLVAPRFPDMTAQPEAVALASGALDVLERAAVHDTLEEALAPVTLAFALTARVRDLGPPPCDIREAAGLARRHLDDTEAGVVAIVLGTERAGLTNAQIELCHRICHIPANPQYSSLNVAQALQLAAWELRYALLAGTGQPLLPASSAQQANPGAAPADGAAVQALLAHWEQALVAVGFLDPAHPKKLMPRMKHLLTRSALSRDEVDMLRGVCTAMIAPNRPK” was “failed”.

On to “MTQFKLIGFDLDGTLVNSLPDLALSINSALKDVNLPQASENLVMTWIGNGADVLSQRAVDWACKQAEKELTEDEFKYFKRQFGFYYGENLCNISRLYPNVKETLEALKAQGYILAVVTNKPTKHVQPILTAFGIDHLFSEMLGGQSLPEIKPHPAPFYYLCGKFGLYPKQILFVGDSQNDIFAAHSAGCAVVGLTYGYNYNIPIAQSKPDWIFDDFADILKITQ”, for which the protein production result was “not failed”. The value for “MTQIIKIDPLNPEIDKIKIAADVIRNGGTVAFPTETVYGLGANAFDGNACLKIFQAKNRPVDNPLIVHIADFNQLFEVAKDIPDKVLEIAQIVWPGPLTFVLKKTERVPKEVTAGLDTVAVRMPAHPIALQLIRESGVPIAAPSANLATRPSPTKAEDVIVDLNGRVDVIIDGGHTFFGVESTIINVTVEPPVLLRPGPFTIEELKKLFGEIVIPEFAQGKKEAEIALAPGMKYKHYAPNTRLLLVENRNIFKDVVSLLSKKYKVALLIPKELSKEFEGLQQIILGSDENLYEVARNLFDSFRELDKLNVDLGIMIGFPERGIGFAIMNRARKASGFSIIKAISDVYKYVNI” was “not failed”; that for “MTQLPPAIFLMGPTAAGKTDLAIELTKVLPCELISVDSALVYRGMDIGTAKPSRELLAQFPHRLIDILDPAESYSAADFRTDALAAMADITARGKIPLLVGGTMLYYKALLEGLADMPAADPQVRAELEEEAARLGWQALHDQLAAVDPESAARIHPNDPQRLTRALEVYRVSGLTMTAHRQRQLAQSTEAGASGRSQLPYTVANLAIAPANRQVLHQRIAQRFTQMLEQGFIDEVVALRSRSDLHAGLPSIRAVGYRQVWDHLDGKLTSAEMQERGIIATRQLAKRQFTWLRSWADLQWLDSLDCDNLPRALKYLGTISILSLEHHHHHH” was “failed”; that for “MTQLQISLLLTATISLLHLVVATPYEAYPIGKQYPPVARVNESFTFQISNDTYKSSVDKTAQITYNCFDLPSWLSFDSSSRTFSGEPSSDLLSDANTTLYFNVILEGTDSADSTSLNNTYQFVVTNRPSISLSSDFNLLALLKNYGYTNGKNALKLDPNEVFNVTFDRSMFTNEESIVSYYGRSQLYNAPLPNWLFFDSGELKFTGTAPVINSAIAPETSYSFVIIATDIEGFSAVEVEFELVIGAHQLTTSIQNSLIINVTDTGNVSYDLPLNYVYLDDDPISSDKLGSINLLDAPDWVALDNATISGSVPDELLGKNSNPANFSVSIYDTYGDVIYFNFEVVSTTDLFAISSLPNINATRGEWFSYYFLPSQFTDYVNTNVSLEFTNSSQDHDWVKFQSSNLTLAGEVPKNFDKLSLGLKANQGSQSQELYFNIIGMDSKITHSNHSANATSTRSSHHSTSTSSYTSSTYTAKISSTSAAATSSAPAALPAANKTSSHNKKAVAIACGVAIPLGVILVALICFLIFWRRRRENPDDENLPHAISGPDLNNPANKPNQENATPLNNPFDDDASSYDDTSIARRLAALNTLKLDNHSATESDISSVDEKRDSLSGMNTYNDQFQSQSKEELLAKPPVQPPESPFFDPQNRSSSVYMDSEPAVNKSWRYTGNLSPVSDIVRDSYGSQKTVDTEKLFDLEAPEKEKRTSRDVTMSSLDPWNSNISPSPVRKSVTPSPYNVTKHRNRHLQNIQDSQSGKNGITPTTMSTSSSDDFVPVKDGENFCWVHSMEPDRRPSKKRLVDFSNKSNVNVGQVKDIHGRIPEML” was “failed”.

Consider “MTQLQQSVIESQPGKLSDYLGHTRRNRFSIRLFSGLIGFILVLAVMATGYWLVFASDRYVSEASVIIRKTDSVTAPSFDLSMLIAGVAGVNRADQLLLREYLLSVDMLKKLDTELDLHAHYSDEHYDLLSRMWLKDMEWFHRHYLSRVSIEYDDYAGVLRINAQAYDPEIARAISNLLVREGERYMNQISHELAETQVSFLTTQVNLAQLRFQQVRQKLLAYQNKKGLLSPQATVESLNTLIAKLEEQRAQLKTQLASLPRTLDRNHPNLVMLRQSLAAIDRQITDEKAKLANPTGKTLNITMEEFQRLEMEVTFAQELYKAALTALEKGRIDATRMLDKVSVLQAPTLPEYPMEPRRIYNTLVTLLFALMLAGILKLLEGIILDHVD”, for which the protein production entry was “failed”. Next, “MTQPLRQYREKRDFRATAEPAGAARRPRAAARASEGLSFVIQRHQARRLHYDFRLEIDGVLVSWAVPKGPSRDPSVKRLAVHVEDHPLEYGGFSGDIPKGQYGAGHVDIWDSGVWIPRGDPRQGLRRGKLHFALRGRRLAGDWVLVRMSGEQDQWLLRKEDDEAAVPGDDAERAPATPPPAPEHAPAATPRGRRAAMPHTLAPQLATLVDSPPHGPGWSYEVKYDGYRILAACSAGGVRLVSRGNEDWQARMAPLARALGALKLGRGWLDGEVVVLDERGVADFQLLQNALDGQAEGLVFVAFDLPFWNGEDLRALPLQARQERLEDLLREVPEDAPLMLTQRLPVADDTEGKAAWNEACRLSLEGLICKRLDAPYRSGRSQGWLKLKCRPRQEFVIGGYTEPAGARRHLGALLVGLRQGRQLRYAGRVGTGFGAATLRTLGQRLAALRQDAKPFSGDVPRGRGDAAIHWVSPELVAEVNYAGITRDGLLRQASFAGLRADKPASEVRGEVAARPPAAKAATPSRRAGDGRAEVAGVRISHPDRLAYREPDYTKLQLAEYYAAIGPHILPHLRQRRVALLRCPDGAGTTCFFQKHLSQSLPAGVRRDGGHLVIESLPGLIALVQYGAIEFHTWGADTRHPDTPDRITLDLDPGPGVAWPAIVEGAQMARLLMQEVGLEPFLKTTGGKGLHLVAPLRPTQPWDTVKDFARALARQLAVALPDRFTANMAKARRERRIFVDYLRNGNGATAVAAFSARARDGAPVSMPLSWDALDAGDDLRGARWNIANALEQARRKPDPWADYAASRRTLGSRMQARLPRD”: “failed”.
